Data taken from patent US20230158141A1 (YAFEI SHANGHAI BIOLOG MEDICINE SCIENCE AND TECHNOLOGY, published 2023).
Numbering of substitutions follows the chain as printed.

T1: IL-10R1-Fc (UniProt Q13651 22-235, limits assumed)
T1 sequence (looked up): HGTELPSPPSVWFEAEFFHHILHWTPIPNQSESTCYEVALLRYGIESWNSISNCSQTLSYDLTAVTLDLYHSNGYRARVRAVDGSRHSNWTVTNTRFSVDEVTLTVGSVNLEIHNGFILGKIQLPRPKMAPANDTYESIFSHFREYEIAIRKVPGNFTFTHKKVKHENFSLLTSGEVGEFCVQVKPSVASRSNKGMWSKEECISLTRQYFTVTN

B1: IL-10 Thr6Cys-R4-7 (ligand, human, UniProt P22301 19-178, looked up)
chain: SPGQGCQSENSCTHFPGNLPNMLRDLRDAFSRVKTFFQMKDQLDNLLLKESLLEDFKGYLGCQALSEMIQFYLEEVMPQAENQDPDIKAHVNSLGENLKTLRLRLRRCHRFLPCENKSKAVEQVKNAFNKLQEKGIYKAMSEFDIFINYIEAYMTMKIRN
modifications: R4-7 on Cys 6
notes: mature
B2: IL-10 Asp25Cys-R4-12 (ligand, human, UniProt P22301 19-178, looked up)
chain: B1 chain with C6T, D25C
modifications: R4-12 on Cys 25
notes: mature
B3: IL-10 Asn45Cys-S48 (ligand, human, UniProt P22301 19-178, looked up)
chain: B1 chain with C6T, N45C
modifications: S48 on Cys 45
notes: mature
B4: IL-10 Gln38Cys-R4-19 (ligand, human, UniProt P22301 19-178, looked up)
chain: B1 chain with C6T, Q38C
modifications: R4-19 on Cys 38
notes: mature
B5: IL-10 Leu53Cys-S48 (ligand, human, UniProt P22301 19-178, looked up)
chain: B1 chain with C6T, L53C
modifications: S48 on Cys 53
notes: mature
B6: IL-10 Gln42Cys-S48 (ligand, human, UniProt P22301 19-178, looked up)
chain: B1 chain with C6T, Q42C
modifications: S48 on Cys 42
notes: mature
B7: IL-10 Leu65Cys-S48 (ligand, human, UniProt P22301 19-178, looked up)
chain: B1 chain with C6T, L65C
modifications: S48 on Cys 65
notes: mature
B8: IL-10 Leu48Cys-S48 (ligand, human, UniProt P22301 19-178, looked up)
chain: B1 chain with C6T, L48C
modifications: S48 on Cys 48
notes: mature
B9: IL-10 Leu23Cys-S48 (ligand, human, UniProt P22301 19-178, looked up)
chain: B1 chain with C6T, L23C
modifications: S48 on Cys 23
notes: mature
B10: IL-10 Gln38Cys-S48 (ligand, human, UniProt P22301 19-178, looked up)
chain: B1 chain with C6T, Q38C
modifications: S48 on Cys 38
notes: mature
B11: IL-10 Ile69Cys-S48 (ligand, human, UniProt P22301 19-178, looked up)
chain: B1 chain with C6T, I69C
modifications: S48 on Cys 69
notes: mature
B12: IL-10 Arg159Cys-R4-20 (ligand, human, UniProt P22301 19-178, looked up)
chain: B1 chain with C6T, R159C
modifications: R4-20 on Cys 159
notes: mature
B13: IL-10 Asp144Cys-S48 (ligand, human, UniProt P22301 19-178, looked up)
chain: B1 chain with C6T, D144C
modifications: S48 on Cys 144
notes: mature
B14: IL-10 Ile69Cys-R4-6 (ligand, human, UniProt P22301 19-178, looked up)
chain: B1 chain with C6T, I69C
modifications: R4-6 on Cys 69
notes: mature
B15: IL-10 Asp41Cys-R4-11 (ligand, human, UniProt P22301 19-178, looked up)
chain: B1 chain with C6T, D41C
modifications: R4-11 on Cys 41
notes: mature
B16: IL-10 Leu131Cys-R4-6 (ligand, human, UniProt P22301 19-178, looked up)
chain: B1 chain with C6T, L131C
modifications: R4-6 on Cys 131
notes: mature
B17: IL-10 Glu151Cys-R4-12 (ligand, human, UniProt P22301 19-178, looked up)
chain: B1 chain with C6T, E151C
modifications: R4-12 on Cys 151
notes: mature
B18: IL-10 Gly135Cys-S48 (ligand, human, UniProt P22301 19-178, looked up)
chain: B1 chain with C6T, G135C
modifications: S48 on Cys 135
notes: mature
B19: IL-10 Asp44Cys-S48 (ligand, human, UniProt P22301 19-178, looked up)
chain: B1 chain with C6T, D44C
modifications: S48 on Cys 44
notes: mature
B20: IL-10 Asn148Cys-R4-18 (ligand, human, UniProt P22301 19-178, looked up)
chain: B1 chain with C6T, N148C
modifications: R4-18 (printed R418) on Cys 148
notes: mature
B21: IL-10 Leu48Cys-R4-7 (ligand, human, UniProt P22301 19-178, looked up)
chain: B1 chain with C6T, L48C
modifications: R4-7 on Cys 48
notes: mature
B22: IL-10 Leu94Cys-S48 (ligand, human, UniProt P22301 19-178, looked up)
chain: B1 chain with C6T, L94C
modifications: S48 on Cys 94
notes: mature
B23: IL-10 Arg159Cys-S48 (ligand, human, UniProt P22301 19-178, looked up)
chain: B1 chain with C6T, R159C
modifications: S48 on Cys 159
notes: mature
B24: IL-10 Glu50Cys-S48 (ligand, human, UniProt P22301 19-178, looked up)
chain: B1 chain with C6T, E50C
modifications: S48 on Cys 50
notes: mature
B25: IL-10 Arg27Cys-R4-20 (ligand, human, UniProt P22301 19-178, looked up)
chain: B1 chain with C6T, R27C
modifications: R4-20 on Cys 27
notes: mature
B26: IL-10 Arg27Cys-S48 (ligand, human, UniProt P22301 19-178, looked up)
chain: B1 chain with C6T, R27C
modifications: S48 on Cys 27
notes: mature
B27: IL-10 Asn148Cys-S48 (ligand, human, UniProt P22301 19-178, looked up)
chain: B1 chain with C6T, N148C
modifications: S48 on Cys 148
notes: mature
B28: IL-10 Asn45Cys-R4-18 (ligand, human, UniProt P22301 19-178, looked up)
chain: B1 chain with C6T, N45C
modifications: R4-18 on Cys 45
notes: mature
B29: IL-10 Ile158Cys-R4-6 (ligand, human, UniProt P22301 19-178, looked up)
chain: B1 chain with C6T, I158C
modifications: R4-6 on Cys 158
notes: mature
B30: IL-10 Leu19Cys-S48 (ligand, human, UniProt P22301 19-178, looked up)
chain: B1 chain with C6T, L19C
modifications: S48 on Cys 19
notes: mature
B31: IL-10 Gly17Cys-S48 (ligand, human, UniProt P22301 19-178, looked up)
chain: B1 chain with C6T, G17C
modifications: S48 on Cys 17
notes: mature
B32: IL-10 Leu53Cys-R4-6 (ligand, human, UniProt P22301 19-178, looked up)
chain: B1 chain with C6T, L53C
modifications: R4-6 on Cys 53
notes: mature
B33: IL-10 Leu94Cys-R4-6 (ligand, human, UniProt P22301 19-178, looked up)
chain: B1 chain with C6T, L94C
modifications: R4-6 on Cys 94
notes: mature
B34: IL-10 Glu142Cys-R4-12 (ligand, human, UniProt P22301 19-178, looked up)
chain: B1 chain with C6T, E142C
modifications: R4-12 on Cys 142
notes: mature
B35: IL-10 Glu151Cys-S48 (ligand, human, UniProt P22301 19-178, looked up)
chain: B1 chain with C6T, E151C
modifications: S48 on Cys 151
notes: mature
B36: IL-10 Asp28Cys-R4-11 (ligand, human, UniProt P22301 19-178, looked up)
chain: B1 chain with C6T, D28C
modifications: R4-11 on Cys 28
notes: mature
B37: IL-10 Leu26Cys-R4-6 (ligand, human, UniProt P22301 19-178, looked up)
chain: B1 chain with C6T, L26C
modifications: R4-6 on Cys 26
notes: mature
B38: IL-10 Asp144Cys-R4-11 (ligand, human, UniProt P22301 19-178, looked up)
chain: B1 chain with C6T, D144C
modifications: R4-11 on Cys 144
notes: mature
B39: IL-10 Glu50Cys-R4-12 (ligand, human, UniProt P22301 19-178, looked up)
chain: B1 chain with C6T, E50C
modifications: R4-12 on Cys 50
notes: mature
B40: IL-10 Leu105Cys-S48 (ligand, human, UniProt P22301 19-178, looked up)
chain: B1 chain with C6T, L105C
modifications: S48 on Cys 105
notes: mature
B41: IL-10 Leu23Cys-R4-6 (ligand, human, UniProt P22301 19-178, looked up)
chain: B1 chain with C6T, L23C
modifications: R4-6 on Cys 23
notes: mature
B42: IL-10 Glu142Cys-S48 (ligand, human, UniProt P22301 19-178, looked up)
chain: B1 chain with C6T, E142C
modifications: S48 on Cys 142
notes: mature
B43: IL-10 Ile158Cys-S48 (ligand, human, UniProt P22301 19-178, looked up)
chain: B1 chain with C6T, I158C
modifications: S48 on Cys 158
notes: mature
B44: IL-10 Gly135Cys-R4-1 (ligand, human, UniProt P22301 19-178, looked up)
chain: B1 chain with C6T, G135C
modifications: R4-1 on Cys 135
notes: mature
B45: IL-10 Asp28Cys-S48 (ligand, human, UniProt P22301 19-178, looked up)
chain: B1 chain with C6T, D28C
modifications: S48 on Cys 28
notes: mature
B46: IL-10 Asp41Cys-S48 (ligand, human, UniProt P22301 19-178, looked up)
chain: B1 chain with C6T, D41C
modifications: S48 on Cys 41
notes: mature
B47: IL-10 Leu19Cys-R4-7 (ligand, human, UniProt P22301 19-178, looked up)
chain: B1 chain with C6T, L19C
modifications: R4-7 on Cys 19
notes: mature
B48: IL-10 Leu46Cys-S48 (ligand, human, UniProt P22301 19-178, looked up)
chain: B1 chain with C6T, L46C
modifications: S48 on Cys 46
notes: mature
B49: IL-10 Gly17Cys-R4-1 (ligand, human, UniProt P22301 19-178, looked up)
chain: B1 chain with C6T, G17C
modifications: R4-1 on Cys 17
notes: mature
B50: IL-10 Leu26Cys-S48 (ligand, human, UniProt P22301 19-178, looked up)
chain: B1 chain with C6T, L26C
modifications: S48 on Cys 26
notes: mature
B51: IL-10 Gln42Cys-R4-19 (ligand, human, UniProt P22301 19-178, looked up)
chain: B1 chain with C6T, Q42C
modifications: R4-19 on Cys 42
notes: mature
B52: IL-10 Asp44Cys-R4-11 (ligand, human, UniProt P22301 19-178, looked up)
chain: B1 chain with C6T, D44C
modifications: R4-11 on Cys 44
notes: mature
B53: IL-10 Leu105Cys-R4-6 (ligand, human, UniProt P22301 19-178, looked up)
chain: B1 chain with C6T, L105C
modifications: R4-6 on Cys 105
notes: mature
B54: IL-10 Leu65Cys-R4-6 (ligand, human, UniProt P22301 19-178, looked up)
chain: B1 chain with C6T, L65C
modifications: R4-6 on Cys 65
notes: mature
B55: IL-10 Leu46Cys-R4-6 (ligand, human, UniProt P22301 19-178, looked up)
chain: B1 chain with C6T, L46C
modifications: R4-6 on Cys 46
notes: mature

Target: T1, IL-10R1-Fc
Test: ELISA, IL-10R1-Fc coated

Binder	Binding recovery (>60%) [%]	Decreased fold of binding to ligand after Conjugating with S48 [fold]
B1	101	–
B2	97.1	–
B3	–	7
B4	87	–
B5	–	3
B6	–	18
B7	–	3
B8	–	3
B9	–	12
B10	–	52
B11	–	3
B12	99	–
B13	–	15
B14	97.3	–
B15	95.2	–
B16	98.5	–
B17	82.5	–
B18	–	3
B19	–	43
B20	84.3	–
B21	98.9	–
B22	–	5
B23	–	3
B24	–	4
B25	86.6	–
B26	–	12
B27	–	10
B28	97.7	–

Binder	Binding recovery (>60%) [%]	Decreased fold of binding to ligand after Conjugating with S48 [fold]
B29	81.7	–
B30	–	8
B31	–	15
B32	99.4	–
B33	88.4	–
B34	78	–
B35	–	13
B36	92.3	–
B37	93.4	–
B38	90.5	–
B39	99.8	–
B40	–	5
B41	101	–
B42	–	13
B43	–	9
B44	99.5	–
B45	–	30
B46	–	13
B47	95.3	–
B48	–	22
B49	90.2	–
B50	–	3
B51	90	–
B52	92.1	–
B53	92.3	–
B54	92.3	–
B55	89.6	–
